# Test results as given in publication PMC5686756 (2017).
# What was measured:
# [1] = molecular target: T1, GB1-tagged ks-vFLIP (residues 1 to 188) (Kaposi's sarcoma-associated herpesvirus …, UniProt Q76RF1 1-188); experiment: ITC; in buffer
# [2] = molecular target: T1, GB1-tagged ks-vFLIP (residues 1 to 188); experiment: ITC; apparent Kd, competition in presence of spIKKγ (deionized water)
binder,measurement,setting,value
IKKγ fragment encompassing residues 150 to 272 (domain or fragment) LGELQESQSRLEAATKECQALEGRARAASEQARQLESEREALQQQHSVQVDQLRMQGQSVEAALRMERQAASEEKRKLAQLQVAYHQLFQEYDNHIKSSVVGSERKRGMQLEDLKQQLQQAEE,Kd,[1],0.2 µM
same,Kd,[2],30.4 µM
